# Experimental data from patent US20120052092A1 (IMPERIAL INNOVATIONS, published 2012).
# T1: factor H binding protein (wild type, variant 1) (Neisseria meningitidis, UniProt E6MV22 20-274)
# T1 sequence: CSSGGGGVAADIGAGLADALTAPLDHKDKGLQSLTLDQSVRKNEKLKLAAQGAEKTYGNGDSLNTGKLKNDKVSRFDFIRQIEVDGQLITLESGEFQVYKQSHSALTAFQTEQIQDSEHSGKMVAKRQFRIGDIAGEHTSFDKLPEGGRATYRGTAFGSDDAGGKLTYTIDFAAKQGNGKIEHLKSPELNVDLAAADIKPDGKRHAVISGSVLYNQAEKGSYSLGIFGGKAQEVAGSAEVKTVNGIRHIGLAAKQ
# B1: fH67 (CCPs 6 and 7 of factor H) (other)
# chain: TLKPCDYPDIKHGGLYHENMRRPYFPVAVGKYYSYYCDEHFETPSGSYWDHIHCTQDGWSPAVPCLRKCYFPYLENGYNQNYGRKFVQGKSIDVACHPGYALPKAQTTVTCMENGWSPTPRCI
# notes: domain: CCPs 6 and 7; also called CCPs 67; Factor H domains 6 & 7
# Molecular target: T1, factor H binding protein (wild type, …)
# Test: derived from binding studies (SPR)
binder,measurement,value
B1,ΔG (calculated from KD),-11 kcal/mol
